Target: T1, DLL3 (target in the Fab-Zap internalization assay) (UniProt Q9NYJ7 27-618, limits assumed)
T1 sequence (looked up): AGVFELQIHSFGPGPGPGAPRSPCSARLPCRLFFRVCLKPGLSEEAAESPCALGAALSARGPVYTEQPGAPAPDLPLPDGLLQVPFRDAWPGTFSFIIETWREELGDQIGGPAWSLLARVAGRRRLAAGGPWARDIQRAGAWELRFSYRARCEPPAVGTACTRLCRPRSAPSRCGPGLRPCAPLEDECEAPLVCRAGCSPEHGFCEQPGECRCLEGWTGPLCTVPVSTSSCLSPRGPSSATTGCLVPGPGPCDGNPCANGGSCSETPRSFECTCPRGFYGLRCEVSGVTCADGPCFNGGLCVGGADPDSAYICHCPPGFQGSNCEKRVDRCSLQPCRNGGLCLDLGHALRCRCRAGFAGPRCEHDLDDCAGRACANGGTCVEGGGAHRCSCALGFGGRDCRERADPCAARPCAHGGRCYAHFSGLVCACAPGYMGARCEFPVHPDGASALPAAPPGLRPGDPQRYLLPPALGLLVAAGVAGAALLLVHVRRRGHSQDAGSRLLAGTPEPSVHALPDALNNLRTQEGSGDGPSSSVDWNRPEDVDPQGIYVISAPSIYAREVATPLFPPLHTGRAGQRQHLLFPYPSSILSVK
Test: cell-based or functional assay

Binder | Percent Max Killing (Fab-Zap internalization assay, 10 ug/ml)
D8 (antibody, V domains shown) VH: QVQLVQSGAEVKKPGASVKVSCKASGYTFTTYYMHWVRQAPGQGLEWMGIINPSGGSTSYAQKFQGRVTMTRDTSTSTVYMELSSLRSEDTAVYYCARQGHYIGNYLDYWGQGTLVTVSS VL: not shown | 68%
L12 (antibody, V domains shown) VH: QVQLVQSGAEVKKPGASVKVSCKASGYTFTSYYMHWVRQAPGQGLEWMGIINPSGGSRSYAQKFQGRVTMTRDTSTSTVYMELSSLRSEDTAVYYCARQLELLGNAFDIWGQGTMVTVSS VL: not shown | 61%
C22 (antibody, V domains shown) VH: QVQLVQSGAEVKKPGASVKVSCKASGYTFTSYYMHWVRQAPGQGLEWMGIINPSGGSTSYAQKFQGRVTMTRDTSTSTVYMELSSLRSEDTAVYYCARVADIVGATFDYWGQGTLVTVSS VL: not shown | 69.1%
J23 (antibody, V domains shown) VH: QVQLVQSGAEVKKPGASVKVSCKASGYTFTSYYMHWVRQAPGQGLEWMGIINYSGGSKSYAQKFQGRVTMTRDTSTSTVYMELSSLRSEDTGVYYCARQGRYSGSYLDYWGQGTLVTVSS VL: not shown | 59.5%
M11 (antibody, V domains shown) VH: QVQLVQSGAEVKKPGASVKVSCKASGYTFTSYYIHWVRQAPGQGLEWMGIINPSGGSKSYAQKFQGRVTMTRDTSTGTVYMELSSLRSEDTAVYYCAGQLELLGNAFDIWGQGTMVTVSS VL: not shown | 65.2%
I1 (antibody, V domains shown) VH: EVQLVESGGGLVKPGGSLRLSCAASGFTFSNTWMSWVRQAPGKGLEWVGRIKSKSDGGTTDYAAPVKGRFTISRDDSKNTLYLQMNSLKTEDTAVYYCTQYYWNSFDYWGQGTLVTVSS VL: not shown | 97%
P4 (antibody, V domains shown) VH: EVQLVESGGGLVKPGGSLRLSCAASGFTFSFYSMNWVRQAPGKGLEWVSSISSSSSYIYYADSVKGRFTISRDNAKNSLYLQMNSLRAEDTAVYYCARNYDFWRGAFDIWGQGTMVTVSS VL: not shown | 68%
E23 (antibody, V domains shown) VH: QVQLVQSGAEVRKPGASVKVSCKASGYTFTGYYMHWVRQAPGQGLEWMGWINSYSGGANYAQKFQDRVTMTRDTSVSTASMELSRLRSDDTAVYYCARDGSGWYGSYFDFWGQGTLVTVSS VL: DIVMTQTPLSSPVTLGQPASISCRSSQSLVHSDGNTYLSWLQQRPGQPPRLLIYKISNRFSGVPDRFSGSGAGTDFTLKISRVEAEDVGFYYCIQTTQFPLTFGGGTKVEIK | 88.7%
G3 (antibody, V domains shown) VH: QVQLQESGPGLVKPSETLFLTCTVSGGSISSYYWTWIRQPAGKGLEWIGRIYTSGSTNYNPSLKSRVTMSVDTSKNQFSLKLSSVTAADTAVYYCAREDWESWTFDIWGQGTMVTVSS VL: not shown | 86%
C8 (antibody, V domains shown) VH: EVQLVESGGGLVQPGGSQRLSCAASGFTFSSYWMNWVRQAPGKGLEWVANIKEDGSEKYYVDSVKGRFTISRDNAKNSLYLQMNSLRAEDTAVYYCARDPGWAPFDYWGQGTLVTVSS VL: DIQMSQSPSSLSASVGDRVTITCRASQGISNYLAWFQQKPGKAPKSLIYAASSLQSGVPSKFSGSGSGTDFTLAISSLQPEDFATYYCQQYNSFPYTFGQGTTLEIK | 89%
E9 (antibody, V domains shown) VH: QVQLVQSGAEVKKPGASVKVSCKASGYTFTSYYMHWVRQAPGQGLEWMGVINSSGGSTSYAQKFQGRVTMTRDTSTSTVYMDLSSLRSEDTAVYYCARGYCTNGVYYDEDFDYWGQGTLVTVSS VL: DIQMTQSPSSLSASVGDRVTITCRASQGISHYLAWFQQKPGKAPTSLIYAASSLQSGVPSKFSGSGSGTDFTLTISSLQPEDFATYYCQQYNSYPLTFGGGTKVEIK | 61.4%
J8 (antibody, V domains shown) VH: QVHLVQSGAEVKKPGASVKVSCKASGYTFTIYYIHWVRQAPGQGLEWMGIINPSGGSTSYAQKFQGRVTMTRDTSTSTVYMELSSLRSEDTAVYYCSGNDYVDYVTTDYYGMDVWGQGTTVTVSS VL: DIQMTQSPSSLSASVGDRVTITCRASQGISNYLAWFQQKPGKAPKSLIYAASSLQSGVPSKFSGSGSGTDFTLTISSLQPEDFATYYCQQYNSSPYTFGQGTKLEIK | 64%
O24 (antibody, V domains shown) VH: QVQLVQSGAEVKKPGASVKVSCKASGYTFTSYYLHWVRQAPGHGLEWMAIINPSGGSTSYAQKFLGRVTMTRDTSTNTVYMELSSLRSEDTAVYYCARERQQLDYYYFAMDVWGQGTTVTVSS VL: DIQMTQSPSSLSASVGDRVTITCRASQGISNYLAWFQQKPGKAPKSLIYAASSLQSGVPSKFSGSGSGTDFTLTISSLQPEDFATYYCQQYNSYPPTFGQGTKVEIK | 80.3%
L22 (antibody, V domains shown) VH: EVQLLESGGGLVQPGGSLRLSCAASGFTFSSYAMGWVRQTPGKGLEWVSTISGRGGDTYYADSVKGRFTISRDNSKNTLYLQMNSLRAEDTAIYYCAKERGLGFDYWGQGTLVTVSS VL: DIVMTQTPLSLPVTPGEPASISCRSSQSLLDSDDGNTYLDWYLQKPGQSPQLLIYTLSYRASGVPDRFSGSGSGTDFTLKISRVEAEDVGVYYCMQHLEFPLTFGGGTKVEIK | 82%
K19 (antibody, V domains shown) VH: QVQLVQSGAEVKKPGASLKVSCKTSGYTFNSYYMHWVRQAPGQGLEWMGINNPSGGTTSYAQKFQGRVTMTRDTSTSTVYMELSSLRSEDTAVYYCARDWGEQYGMDVWGQGTTVTVSS VL: not shown | 71%
F21 (antibody, V domains shown) VH: EVQLVESGGGLVQPGGSLRLSCAASGFTFSSYWMSWVRQAPGKGLEWVANIKQDGSEKYYVDSVKGRFTISRDNAKNSLYLQMNSLRAEDTAVYYCAREWLRFGGLVYWGQGTLVTVSS VL: not shown | 20%
G23 (antibody, V domains shown) VH: QVQLVQSGAEVKKPGASVKVSCKASGYTFTSYYIHWVRQAPGQGLEWMGIIDPSDGSTNYAQKFQGRVTMTRDTSTSTVYMELSSLRSEDTAVYYCARDREYNYYGLDVWGQGTTVTVSS VL: not shown | 94%
F9 (antibody, V domains shown) VH: QVQLVQSGAEVKKPGASVQVSCKASGYTFTSYYMHWVRQAPGQGLEWMGIINPSGGSTSYAQKFQGRVTMTRDTSTSTVYMELSSLRSEDTAVYYCARQGGAQWLVLAFDIWGQGTMVTVSS VL: EIVLTQSPGTLSLSPGERATLSCRASQSVSSYLAWYQQKPGQPPRLLIYGASSRATGIPDRFSGGGSGTDFTLTISRLEPEDFAVYYCQQYDSSPYTFGQGTKLEIK | 70%
G16 (antibody, V domains shown) VH: QVQLVQSGAEVKKPGASVQVSCKASGYTFTSYYMHWVRQAPGQGLEWMGIINPSGGSTSYAQKFQGRVTMTRDTSTSTVYMELSSLRSEDTAVYYCARQGGAQWLVLAFDIWGQGTMVTVSS VL: EIVLTQSPGTLSLSPGERATLSCRASQSVSSYLAWYQQKPGQAPRLLIYGASSRATGIPDRFSGGGSGTDFTLTISRLEPEDFAVYYCQQYGSSPYTFGQGTKLEIK | 46%
B22 (antibody, V domains shown) VH: EVQLVESGGGLVQPGGSLRLSCAASGFTFNNFWMSWVRQAPGKGLEWVANIKQDGSEKYYVDSVKGRFTISRDNAKNSLYLQMNSLRAEDTAVYYCARESYFDLWGRGTLVTVSS VL: QAVVTQESALTTSPGETVTLTCRSSTGAVTTSNYANWVQEKPDHLFTGLIGGTNNRAPGVPARFSGSLIGDKAALTITGAQTEDEAIYFCALWYSNRWVFGGGTKLTVL | 61.9%
O18 (antibody, V domains shown) VH: QVQLQESGPGLVKPSETLSLTCTVSGGSINSYYWSWIRQPPGKGLEWIGYIFYSGITNYNPSLKSRVTISLDTSKNQFSLKLSSVTAADTAVYYCARIGVAGFYFDYWGQGTLVTVSS VL: not shown | 88%
A18 (antibody, V domains shown) VH: QVTLRESGPALVKSTQTLTLTCTFSGFSLSTSGMCVSWIRQTPGKALEWLALIDWDDNKYYSTSLKTRLIISKDTSKNQVVLTMTNMEPVDTATYYCARIRGYSGSYDAFDIWGQGTMVTVSS VL: DIVMTQSPLSLPVTPGEPASISCRSSQSLLHSNGYNYLDWYLQKPGQSPHILLYLGSNRAPGVPDRFSGSGSGTDFTLKISRVEAEDVGVYYCMQALQTPFTFGPGTKVDIK | 67%
N10 (antibody, V domains shown) VH: QVQLVQSGAEVKKPGASVKVSCKASGYTFTGYYMHWVRQAPGQGLEWMGWINPHSGAPNSAQKFQVRVTMTRDTSISTAYMELSRLRSDDTAVYYCARDSSGWYGDAFDIWGQGTMVTVSS VL: not shown | 74%

Source: patent US20240368269A1 (Memorial Sloan Kettering, published 2024)
